In patent US20110086089A1, “USE OF P27KIP1 FOR THE PREVENTION AND TREATMENT OF HEART FAILURE” (UNIVERSITY HEALTH NETWORK, priority 2008, published 2011):

System: p27 phosphorylation at S83 and T187 in cardiomyocytes
Assay: p27 phosphorylation at S83 and T187 in Ang II-treated cardiomyocytes (Western blot)
Type: cell-based, rat
Conditions: Ang II 4 h; lentiviruses 72 h; DMAT 20 μM pre-incubated 30 min; TAT-conjugated CK2-alpha-prime 2.5 μg/ml 1 h
Procedure: FIG. 2 is a series of graphs and blots showing Ang II triggers CK2-alpha-prime-dependent phosphorylation of p27 on S83 and T187 in cardiomyocytes. (A) p27 is a substrate of CK2-alpha-prime. […] In vitro kinase assays employing recombinant wt.p27 (1 μg) or phosphorylation site mutants of p27 as substrates were incubated with recombinant CK2-alpha-prime/beta (200 ng). Aliquots of the reaction mixtures were resolved on SDS-PAGE, electrotransferred to nitrocellulose membranes, and the amount of incorporated radioactive [^32P}-label into p27 was quantified with a PhosphorImager and ImageJ software. Individual membranes were probed with anti-CK2-alpha-prime, anti-p27 (input), or phosphorylation site specific antibodies to p27. […] Samples were resolved on SDS-PAGE, transferred to nitrocellulose-membranes, and the amount of incorporated radioactive label into histones was quantified with a PhosphorImager and ImageJ. The input amount of each CK2-alpha-prime and p27 protein used in the kinase reaction mixtures was monitored by immunoblot analysis employing anti-His. […] Biochemically fractionated extracts corresponding to 4×10^5 cells per lane were analyzed by immunoblotting employing antibodies as indicated on the left. […]

B1: kd.CK2-α′: catalytically-inactive kinase-dead CK2-alpha-prime, point mutation K69M; TAT-conjugated protein in mice, lentivirally expressed in cardiomyocytes (protein)
chain: MPGPAAGSRARVYAEVNSLRSREYWDYEAHVPSWGNQDDYQLVRKLGRGKYSEVFEAINITNNERVVVMILKPVKKKKIKREVKILENLRGGTNIIKLIDTVKDPVSKTPALVFEYINNTDFKQLYQILTDFDIRFYMYELLKALDYCHSKGIMHRDVKPHNVMIDHQQKKLRLIDWGLAEFYHPAQEYNVRVASRYFKGPELLVDYQMYDYSLDMWSLGCMLASMIFRREPFFHGQDNYDQLVRIAKVLGTEELYGYLKKYHIDLDPHFNDILGQHSRKRWENFIHSENRHLVSPEALDLLDKLLRYDHQQRLTAKEAMEHPYFYPVVKEQSQPCADNAVLSSGLTAAR
modifications: left off: small tags and cut ends
notes: TAT-conjugated protein in mice, lentivirally expressed in cardiomyocytes
S83/T187 phosphorylation of p27 in cardiomyocytes: abolished
